According to article PMC12205872, “ESSENTIAL MEIOTIC ENDONUCLEASE 1 is required for chloroplast development and DNA repair in rice”:

Tests used:
[1] = target: T1, OsEME1 (MBP removed by TEVp) (Oryza sativa L. japonica cv. KY131, UniProt Q0J9J6 1-650); test: EMSA; 20 uM protein, 1 mM Mg2+, 5 mM ATP; EMSA/cleavage: 25 mM Tris-HCl pH 7.5, 1 mM MgCl2, 100 mg/mL BSA (so in the source), 1 mM DTT, 5 mM ATP, 2.5 uM Cy5 substrate, 20 uM protein, 30 C, 15% TBE-PAGE after; conditions: protein: recombinant, tags: MBP cleaved by TEVp, splayed Y: X1 1-25 paired with X2 26-50, 25 nt unpaired arms
T1 sequence: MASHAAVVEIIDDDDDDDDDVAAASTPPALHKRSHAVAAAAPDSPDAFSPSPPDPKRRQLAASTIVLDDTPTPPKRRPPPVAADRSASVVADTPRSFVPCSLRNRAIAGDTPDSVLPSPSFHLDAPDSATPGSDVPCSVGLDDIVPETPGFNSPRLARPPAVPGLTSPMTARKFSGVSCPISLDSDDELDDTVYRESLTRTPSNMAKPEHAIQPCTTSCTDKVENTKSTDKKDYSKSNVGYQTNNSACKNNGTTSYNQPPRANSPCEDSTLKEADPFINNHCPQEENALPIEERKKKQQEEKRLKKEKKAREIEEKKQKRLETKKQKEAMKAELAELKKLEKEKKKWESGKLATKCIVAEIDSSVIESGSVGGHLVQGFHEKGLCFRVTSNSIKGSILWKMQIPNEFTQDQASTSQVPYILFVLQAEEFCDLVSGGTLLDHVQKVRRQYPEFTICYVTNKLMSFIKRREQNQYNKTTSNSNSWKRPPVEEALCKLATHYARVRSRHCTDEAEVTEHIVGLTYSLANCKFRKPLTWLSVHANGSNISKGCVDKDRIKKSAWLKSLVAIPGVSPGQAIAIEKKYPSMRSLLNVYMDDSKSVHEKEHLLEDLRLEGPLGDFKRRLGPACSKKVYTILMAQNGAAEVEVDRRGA

[2] = target: T2, OsEME1-MBP (MBP fusion, used in MST) (Oryza sativa L. japonica cv. KY131, UniProt Q0J9J6 1-650); test: MST; 100 nM DNA, 30 C; substrate called Y-Flag in Methods; EMSA/cleavage: 25 mM Tris-HCl pH 7.5, 1 mM MgCl2, 100 mg/mL BSA (so in the source), 1 mM DTT, 5 mM ATP, 2.5 uM Cy5 substrate, 20 uM protein, 30 C, 15% TBE-PAGE after; conditions: protein: recombinant; tags: MBP; splayed Y: X1 1-25 paired with X4 26-50; 25 nt unpaired 3' arm of X1 and 5' arm of X4
T2 sequence: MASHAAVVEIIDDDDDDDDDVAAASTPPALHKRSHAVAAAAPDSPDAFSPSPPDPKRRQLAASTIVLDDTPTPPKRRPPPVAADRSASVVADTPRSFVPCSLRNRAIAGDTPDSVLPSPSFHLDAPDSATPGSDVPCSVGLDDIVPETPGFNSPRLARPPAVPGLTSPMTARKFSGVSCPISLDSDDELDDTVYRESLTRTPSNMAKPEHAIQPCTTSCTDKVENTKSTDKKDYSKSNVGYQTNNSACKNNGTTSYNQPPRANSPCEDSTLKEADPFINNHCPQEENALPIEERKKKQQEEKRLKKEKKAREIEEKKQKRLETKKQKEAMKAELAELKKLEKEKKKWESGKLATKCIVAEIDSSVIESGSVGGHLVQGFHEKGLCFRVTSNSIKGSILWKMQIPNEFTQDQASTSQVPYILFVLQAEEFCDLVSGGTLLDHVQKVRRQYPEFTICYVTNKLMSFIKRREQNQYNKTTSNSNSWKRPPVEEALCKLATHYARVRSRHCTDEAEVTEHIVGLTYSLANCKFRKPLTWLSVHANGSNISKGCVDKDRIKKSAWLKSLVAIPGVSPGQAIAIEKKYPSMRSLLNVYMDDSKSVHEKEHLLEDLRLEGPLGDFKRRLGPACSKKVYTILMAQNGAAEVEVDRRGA

[3] = target: T3, OsMUS81 (MBP removed by TEVp) (Oryza sativa L. japonica cv. KY131, UniProt Q8GT06 1-660); test: EMSA; 1 mM Mg2+, 5 mM ATP; not responsible for cleavage; EMSA/cleavage: 25 mM Tris-HCl pH 7.5, 1 mM MgCl2, 100 mg/mL BSA (so in the source), 1 mM DTT, 5 mM ATP, 2.5 uM Cy5 substrate, 20 uM protein, 30 C, 15% TBE-PAGE after; conditions: protein: recombinant, tags: MBP cleaved by TEVp, label: Cy5 on X1 (3' end)
T3 sequence: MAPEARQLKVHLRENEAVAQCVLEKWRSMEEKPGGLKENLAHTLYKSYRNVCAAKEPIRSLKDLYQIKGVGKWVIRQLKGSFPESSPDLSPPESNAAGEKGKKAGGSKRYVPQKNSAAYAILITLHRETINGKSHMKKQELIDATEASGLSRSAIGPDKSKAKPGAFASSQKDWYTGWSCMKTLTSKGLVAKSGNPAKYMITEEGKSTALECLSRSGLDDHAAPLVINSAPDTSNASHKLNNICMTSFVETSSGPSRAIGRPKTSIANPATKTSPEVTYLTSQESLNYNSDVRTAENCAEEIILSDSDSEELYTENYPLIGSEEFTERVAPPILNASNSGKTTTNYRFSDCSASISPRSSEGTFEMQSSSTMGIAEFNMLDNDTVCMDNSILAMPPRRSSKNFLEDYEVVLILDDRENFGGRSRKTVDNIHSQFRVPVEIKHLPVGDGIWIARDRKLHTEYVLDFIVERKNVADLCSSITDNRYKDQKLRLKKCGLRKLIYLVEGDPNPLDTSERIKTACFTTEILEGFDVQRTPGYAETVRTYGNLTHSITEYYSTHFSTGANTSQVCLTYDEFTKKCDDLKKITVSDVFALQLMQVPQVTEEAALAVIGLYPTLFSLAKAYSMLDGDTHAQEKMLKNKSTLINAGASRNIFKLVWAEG

B1: OsGLK1-Y12 (mixed)
DNA 1: CGTCGATGACATAGACTTCGGGGACTTCTTCCTGAGGCTGGAGGACGGTG
DNA 2: GAAGTCGGTGAAGATCTCGGCCGGGGTCCCCGAAGTCTATGTCATCGACG
binding result ([1]; label: 5' Cy5 on GLK1 X1): binds

B2: OsGLK2-Y12 (mixed)
DNA 1: GAAGAAGAAGGACGACGAGGAAAGGTCGTCGTCGTTGCCGGAGGAGAAAG
DNA 2: CTCCGTCGTCACCGCGCTCAGGACCCCTTTCCTCGTCGTCCTTCTTCTTC
binding result ([1]; label: 5' Cy5 on GLK2 X1): binds

B3: Y12 (mixed)
DNA 1: GACGCTGCCGAATTCTGGCTTGCTAGGACATCTTTGCCCACGTTGACCCG
DNA 2: GCGATAGTCTCTAGACAGCATGTCCTAGCAAGCCAGAATTCGGCAGCGTC
Kd [2]: 16.3 ± 2.16 µM

B4: pre-X12 (mixed)
DNA 1: GACGCTGCCGAATTCTGGCTTGCTAGGACATCTTTGCCCACGTTGACCCG
DNA 2: CGGGTCAACGTGGGCAAAGATGTCCTAGCAATGTAATCGTCTATGACGTC
DNA 3: GCGATAGTCTCTAGACAGCATGTCCTAGCAAGCCAGAATTCGGCAGCGTC
binding result ([3]; three-strand junction: X1 1-25 with X4 26-50, X1 26-50 with X2 1-25, X2 3' and X4 5' arms single-stranded): binds

B5: X12 (structured_DNA)
DNA 1: GACGCTGCCGAATTCTGGCTTGCTAGGACATCTTTGCCCACGTTGACCCG
DNA 2: CGGGTCAACGTGGGCAAAGATGTCCTAGCAATGTAATCGTCTATGACGTC
DNA 3: GACGTCATAGACGATTACATTGCTAGGACATGCTGTCTAGAGACTATCGC
DNA 4: GCGATAGTCTCTAGACAGCATGTCCTAGCAAGCCAGAATTCGGCAGCGTC
binding result ([3]; four-way Holliday junction with 12-bp mobile homologous core): binds
